From the supplement of paper PMC6757056
± gives the standard deviation of the averaged measurements.

B1: library; a variant is named by its letters at N, in order (parent)
chain: GCUGUCACCGAGAAACUGUGAAGUAUAUCUUAAACCUGGGCACUUAAAAGAUAUAUGGAGUUAGUAGUGCAACCUGCUCGGUCUGAUGAGUCCNNNNNNGGACGAAACAGC

Assays:
[1] = variants of: B1; assay: normalized RNA/DNA level without ligand (relative to sTRSVctl = 100) (log10 (% of sTRSVctl)); HEK293T; ligand: cyclic di-GMP (c-di-GMP-II aptamer); higher = less ribozyme self-cleavage, higher mRNA level; details: reporter: mCherry (pCS4076), ligand present: no
Outline: (§1)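 For each 6-well well, 4 µg of library plasmid encoding mCherry-linked ribozyme switches, or eGFP-linked ones in some ligand experiments, was transfected into HEK293T. Any ligand was added 1 h before transfection, and RNA was extracted with EDTA 72 h after it, then reverse-transcribed, amplified, barcoded and sequenced. RNA level was obtained by dividing RNA reads by DNA reads, normalizing to a spiked-in non-cleaving sequence or to the top sequences, then scaling and log-transforming. The top set was 25 sequences, scaling was ×100 with log10, and ≥100 DNA reads were required.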

[2] = variants of: B1; assay: normalized RNA/DNA level with ligand (relative to sTRSVctl = 100) (log10 (% of sTRSVctl)); HEK293T; ligand: cyclic di-GMP (c-di-GMP-II aptamer); ligand concentration (+) RNA-Seq: 1 mM; higher = less ribozyme self-cleavage, higher mRNA level; details: reporter: mCherry (pCS4076), ligand present: yes
Outline: as §1

Row | Variant | normalized RNA/DNA level without ligand (log10) [1] | normalized RNA/DNA level with ligand (log10) [2]
1 | GCUGUCACCGAGAAACUGUGAAGUAUAUCUUAAACCUGGGCACUUAAAAGAUAUAUGGAGUUAGUAGUGCAACCUGCUCGGUCUGAUGAGUCCUCAUUGGGACGAAACAGC [UCAUUG] | 1.617 ± 0.0034 | 1.82 ± 0.082
2 | GCUGUCACCGAGAAACUGUGAAGUAUAUCUUAAACCUGGGCACUUAAAAGAUAUAUGGAGUUAGUAGUGCAACCUGCUCGGUCUGAUGAGUCCUCAUUCGGACGAAACAGC [UCAUUC] | 1.69 ± 0.051 | 1.85 ± 0.084
3 | GCUGUCACCGAGAAACUGUGAAGUAUAUCUUAAACCUGGGCACUUAAAAGAUAUAUGGAGUUAGUAGUGCAACCUGCUCGGUCUGAUGAGUCCACAUUCGGACGAAACAGC [ACAUUC] | 1.6 ± 0.084 | 1.81 ± 0.058
4 | GCUGUCACCGAGAAACUGUGAAGUAUAUCUUAAACCUGGGCACUUAAAAGAUAUAUGGAGUUAGUAGUGCAACCUGCUCGGUCUGAUGAGUCCUCAUGAGGACGAAACAGC [UCAUGA] | 1.57 ± 0.026 | 1.75 ± 0.12
5 | GCUGUCACCGAGAAACUGUGAAGUAUAUCUUAAACCUGGGCACUUAAAAGAUAUAUGGAGUUAGUAGUGCAACCUGCUCGGUCUGAUGAGUCCUCAUGGGGACGAAACAGC [UCAUGG] | 1.77 ± 0.019 | 1.9 ± 0.08
6 | GCUGUCACCGAGAAACUGUGAAGUAUAUCUUAAACCUGGGCACUUAAAAGAUAUAUGGAGUUAGUAGUGCAACCUGCUCGGUCUGAUGAGUCCUCAUGCGGACGAAACAGC [UCAUGC] | 1.71 ± 0.081 | 1.89 ± 0.045
7 | GCUGUCACCGAGAAACUGUGAAGUAUAUCUUAAACCUGGGCACUUAAAAGAUAUAUGGAGUUAGUAGUGCAACCUGCUCGGUCUGAUGAGUCCACAUCUGGACGAAACAGC [ACAUCU] | 1.6 ± 0.07 | 1.76 ± 0.092
8 | GCUGUCACCGAGAAACUGUGAAGUAUAUCUUAAACCUGGGCACUUAAAAGAUAUAUGGAGUUAGUAGUGCAACCUGCUCGGUCUGAUGAGUCCACAUCGGGACGAAACAGC [ACAUCG] | 1.51 ± 0.1 | 1.71 ± 0.16
9 | GCUGUCACCGAGAAACUGUGAAGUAUAUCUUAAACCUGGGCACUUAAAAGAUAUAUGGAGUUAGUAGUGCAACCUGCUCGGUCUGAUGAGUCCCCAUGAGGACGAAACAGC [CCAUGA] | 1.52 ± 0.033 | 1.72 ± 0.087
10 | GCUGUCACCGAGAAACUGUGAAGUAUAUCUUAAACCUGGGCACUUAAAAGAUAUAUGGAGUUAGUAGUGCAACCUGCUCGGUCUGAUGAGUCCCCAUGGGGACGAAACAGC [CCAUGG] | 1.65 ± 0.11 | 1.82 ± 0.02
11 | GCUGUCACCGAGAAACUGUGAAGUAUAUCUUAAACCUGGGCACUUAAAAGAUAUAUGGAGUUAGUAGUGCAACCUGCUCGGUCUGAUGAGUCCCCAUGUGGACGAAACAGC [CCAUGU] | 1.68 ± 0.054 | 1.8 ± 0.097
12 | GCUGUCACCGAGAAACUGUGAAGUAUAUCUUAAACCUGGGCACUUAAAAGAUAUAUGGAGUUAGUAGUGCAACCUGCUCGGUCUGAUGAGUCCCCAUCUGGACGAAACAGC [CCAUCU] | 1.62 ± 0.074 | 1.76 ± 0.16
13 | GCUGUCACCGAGAAACUGUGAAGUAUAUCUUAAACCUGGGCACUUAAAAGAUAUAUGGAGUUAGUAGUGCAACCUGCUCGGUCUGAUGAGUCCUCAUCUGGACGAAACAGC [UCAUCU] | 1.71 ± 0.052 | 1.9 ± 0.1
14 | GCUGUCACCGAGAAACUGUGAAGUAUAUCUUAAACCUGGGCACUUAAAAGAUAUAUGGAGUUAGUAGUGCAACCUGCUCGGUCUGAUGAGUCCUCAUCGGGACGAAACAGC [UCAUCG] | 1.79 ± 0.023 | 1.88 ± 0.086
15 | GCUGUCACCGAGAAACUGUGAAGUAUAUCUUAAACCUGGGCACUUAAAAGAUAUAUGGAGUUAGUAGUGCAACCUGCUCGGUCUGAUGAGUCCGCAUUAGGACGAAACAGC [GCAUUA] | 1.47 ± 0.089 | 1.71 ± 0.12
16 | GCUGUCACCGAGAAACUGUGAAGUAUAUCUUAAACCUGGGCACUUAAAAGAUAUAUGGAGUUAGUAGUGCAACCUGCUCGGUCUGAUGAGUCCGCAUUCGGACGAAACAGC [GCAUUC] | 1.423 ± 0.011 | 1.7 ± 0.17
17 | GCUGUCACCGAGAAACUGUGAAGUAUAUCUUAAACCUGGGCACUUAAAAGAUAUAUGGAGUUAGUAGUGCAACCUGCUCGGUCUGAUGAGUCCCCAUUCGGACGAAACAGC [CCAUUC] | 1.59 ± 0.043 | 1.77 ± 0.12
18 | GCUGUCACCGAGAAACUGUGAAGUAUAUCUUAAACCUGGGCACUUAAAAGAUAUAUGGAGUUAGUAGUGCAACCUGCUCGGUCUGAUGAGUCCCCAUUAGGACGAAACAGC [CCAUUA] | 1.41 ± 0.066 | 1.6 ± 0.093
19 | GCUGUCACCGAGAAACUGUGAAGUAUAUCUUAAACCUGGGCACUUAAAAGAUAUAUGGAGUUAGUAGUGCAACCUGCUCGGUCUGAUGAGUCCCCAUUUGGACGAAACAGC [CCAUUU] | 1.569 ± 0.013 | 1.7 ± 0.12
20 | GCUGUCACCGAGAAACUGUGAAGUAUAUCUUAAACCUGGGCACUUAAAAGAUAUAUGGAGUUAGUAGUGCAACCUGCUCGGUCUGAUGAGUCCGCAUCGGGACGAAACAGC [GCAUCG] | 1.59 ± 0.045 | 1.76 ± 0.099
21 | GCUGUCACCGAGAAACUGUGAAGUAUAUCUUAAACCUGGGCACUUAAAAGAUAUAUGGAGUUAGUAGUGCAACCUGCUCGGUCUGAUGAGUCCGCAUGAGGACGAAACAGC [GCAUGA] | 1.38 ± 0.1 | 1.54 ± 0.086
22 | GCUGUCACCGAGAAACUGUGAAGUAUAUCUUAAACCUGGGCACUUAAAAGAUAUAUGGAGUUAGUAGUGCAACCUGCUCGGUCUGAUGAGUCCGCAUGCGGACGAAACAGC [GCAUGC] | 1.68 ± 0.026 | 1.81 ± 0.097
23 | GCUGUCACCGAGAAACUGUGAAGUAUAUCUUAAACCUGGGCACUUAAAAGAUAUAUGGAGUUAGUAGUGCAACCUGCUCGGUCUGAUGAGUCCGCAUGGGGACGAAACAGC [GCAUGG] | 1.46 ± 0.15 | 1.67 ± 0.064
24 | GCUGUCACCGAGAAACUGUGAAGUAUAUCUUAAACCUGGGCACUUAAAAGAUAUAUGGAGUUAGUAGUGCAACCUGCUCGGUCUGAUGAGUCCACAUGUGGACGAAACAGC [ACAUGU] | 1.541 ± 0.01 | 1.69 ± 0.091
25 | GCUGUCACCGAGAAACUGUGAAGUAUAUCUUAAACCUGGGCACUUAAAAGAUAUAUGGAGUUAGUAGUGCAACCUGCUCGGUCUGAUGAGUCCACAUGAGGACGAAACAGC [ACAUGA] | 1.3 ± 0.07 | 1.53 ± 0.13
26 | GCUGUCACCGAGAAACUGUGAAGUAUAUCUUAAACCUGGGCACUUAAAAGAUAUAUGGAGUUAGUAGUGCAACCUGCUCGGUCUGAUGAGUCCACAUGCGGACGAAACAGC [ACAUGC] | 1.59 ± 0.049 | 1.77 ± 0.053
